Results as given in article PMC7064771, “Repurposed Drugs That Block the Gonococcus-Complement Receptor 3 Interaction Can Prevent and Cure Gonococcal Infection of Primary Human Cervical Epithelial Cells” (mBio, 2020).

Tests used:
human rI-domain = target: T1, human rI-domain (Homo sapiens, UniProt P11215); assay: Surface plasmon resonance, immobilized human rI-domain; format: binding; conditions: purified pilin 0.125-2 μM; NCDI = no concentration-dependent interaction (no binding of ≤2 μM); read-out: KD, rI-domain, Human
T1 construct: Recombinant human and mouse I-domain proteins were made and purified as previously described; made in house
Procedure: (§1) SPR analyses were performed using a Biacore S200 system (GE Healthcare Life Sciences, Parramatta, NSW, Australia). Samples were analyzed at 25°C in phosphate-buffered saline (PBS) at a flow rate of 10 μl/min and by using single-cycle kinetics. Human rI-domain, mouse rI-domain, and human rCR3 were immobilized onto separate cells of a Series S CM5 sensor chip using an NHS capture kit (both from GE Healthcare Life Sciences) for purified pilin experiments. For experiments in which pilin-glycan-like structures were examined, human rI-domain and rCR3 were immobilized onto separate cells of a CM5 chip. A blank immobilization was used as a control/reference on all chips. MS11 wild-type and MS11 pglA pilin were serially diluted from 2 μM to 0.125 μM in PBS. Glycans (Dextra Laboratories, Reading, UK) (Table 2), resembling the gonococcal Gal(α1-3)diNAcBac pilin-linked glycan, were serially diluted from 2 μM to 0.0078 μM in PBS. Affinity data points were taken at 15 s after injection to avoid an artefactual signal resulting from bulk transport. SPR sensorgrams were analyzed using Biacore Evaluation software (GE Healthcare Life Sciences).

mouse rI-domain = target: T2, mouse rI-domain (Mus musculus, UniProt P05555); assay: Surface plasmon resonance, immobilized mouse rI-domain; conditions: purified pilin 0.125-2 μM; NCDI = no concentration-dependent interaction (no binding of ≤2 μM)
T2 construct: Recombinant human and mouse I-domain proteins were made and purified as previously described; made in house
Procedure: as §1

T1 sequence (P11215 150-328 limits assumed): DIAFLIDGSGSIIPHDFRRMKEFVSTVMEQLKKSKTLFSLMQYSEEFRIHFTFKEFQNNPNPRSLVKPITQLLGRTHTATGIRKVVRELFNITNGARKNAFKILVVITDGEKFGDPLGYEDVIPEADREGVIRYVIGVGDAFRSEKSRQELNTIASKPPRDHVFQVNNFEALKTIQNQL
T2 sequence (P05555 164-338): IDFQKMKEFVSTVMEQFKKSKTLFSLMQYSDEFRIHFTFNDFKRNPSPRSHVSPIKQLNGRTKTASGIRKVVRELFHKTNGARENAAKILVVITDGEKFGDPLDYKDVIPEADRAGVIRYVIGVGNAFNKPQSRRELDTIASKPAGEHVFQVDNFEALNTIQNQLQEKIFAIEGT

B1: MS11 wild type: N. gonorrhoeae MS11 pilin modified with the Gal(α1-3)diNAcBac disaccharide glycan (protein, UniProt P02974 8-165, looked up)
Type IV major pilin protein …: FTLIELMIVIAIVGILAAVALPAYQDYTARAQVSEAILLAEGQKSAVTEYYLNHGKWPENNTSAGVASPPSDIKGKYVKEVEVKNGVVTATMLSSGVNNEIKGKKLSLWARRENGSVKWFCGQPVTRTDDDTVADAKDGKEIDTKHLPSTCRDNFDAK
modifications: Gal(α1-3)diNAcBac disaccharide glycan
notes: N. gonorrhoeae MS11 pilin modified with the Gal(α1-3)diNAcBac disaccharide glycan
Kd (human rI-domain): 349 ± 45 nM
KD, rI-domain, Mouse (mouse rI-domain): NCDI
